Assay results from patent US20080292632A1 (US Dept. of Health and Human Services, published 2008).

Tests used:
Assay in all cases: IRTA Fc-fusion
[1] = target: T1, IRTA4 extracellular domain-Fc fusion protein (human, UniProt Q96LA5 20-401)
T1 construct: Whole entry named; also called IRTA4-Fc; IRTA4 (Fc-fusion); not shown: human IgG1 hinge and Fc
T1 sequence: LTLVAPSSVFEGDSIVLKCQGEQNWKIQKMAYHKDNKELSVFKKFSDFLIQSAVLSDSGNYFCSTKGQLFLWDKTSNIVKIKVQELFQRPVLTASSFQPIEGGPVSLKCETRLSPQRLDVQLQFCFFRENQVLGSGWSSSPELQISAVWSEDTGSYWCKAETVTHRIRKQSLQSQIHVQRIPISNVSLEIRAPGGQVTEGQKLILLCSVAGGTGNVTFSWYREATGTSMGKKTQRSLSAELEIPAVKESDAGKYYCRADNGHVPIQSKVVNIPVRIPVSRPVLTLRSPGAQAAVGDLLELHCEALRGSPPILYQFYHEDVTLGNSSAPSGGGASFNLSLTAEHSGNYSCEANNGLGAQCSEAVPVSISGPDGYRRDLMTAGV
Method: (§1) Each Fc-fusion protein indicated on the top of the column was captured on ELISA plates using secondary antibody (goat anti-human IgG). After washing, 100 ng/50 μl/well of MAbs were added, followed by HRP-labeled goat anti-mouse IgG and TMBZ substrate. The signals in ELISA were normalized for the amounts of each Fc-fusion protein on the plates using HRP-goat anti-human Fc. The controls are MAbs 9E10 (anti-myc tag, IgG1), BerH2 (anti-CD30, IgG1), T408 (anti-CD30, IgG2a), T420 (anti-CD30, IgG2b) and HRP-goat anti-human Fc (1/2400 dilution). […] Two days after transfection, the cells were harvested and incubated with 200 ng/100 μl of each MAb, followed by PE-conjugated goat anti-mouse IgG F(ab′)2. […] In the positive control panels, the MAbs cross-reactive to other IRTAs were used. They are F26 (anti-IRTA1 and anti-IRTA2, IgG2b), F109 (anti-IRTA3, IgG2b), F47 (anti-IRTA4, IgG2a), and F69 (anti-IRTA5, IgG2a). BerH2 (anti-CD30, IgG1) was also used. “+” indicates more than 1.5-fold than that of the control; “++” indicates more than 10-fold mean fluorescence intensity than that of the negative control.
(§2) ELISA. In a typical indirect ELISA for the screening of hybridomas, microtiter plates (MaxiSorp; Nalge Nunc, Rochester, N.Y.) were coated with 100 ng/50 μl/well of goat anti-human IgG in phosphate buffered saline (PBS) for 2 hours at room temperature. Next, 50 ng/100 μl/well of IRTA2-Fc in blocking buffer (25% DMEM, 5% FBS, 25 mM HEPES, 0.5% bovine serum albumin, 0.1% sodium azide in PBS) was added to each well and incubated for 2 hours at room temperature. After washing with PBS containing 0.05% Tween 20, 50 μl of the hybridoma supernatants were added and incubated for 2 hours at room temperature. After washing, the bound MAbs were detected by a 2-hour incubation with horseradish peroxidase (HRP)-labeled goat anti-mouse IgG (Jackson ImmunoResearch, Grove, Pa.) followed by tetramethylbenzidine (TMB) substrate kit (Pierce, Rockford, Ill.). In some experiments, other IRTA-Fc fusion proteins were used instead of IRTA2-Fc.

[2] = target: T2, IRTA3 extracellular domain-Fc fusion protein (human, UniProt Q96P31 18-573)
T2 construct: Whole entry named; also called IRTA3-Fc; IRTA3 (Fc-fusion); not shown: human IgG1 hinge and Fc
T2 sequence: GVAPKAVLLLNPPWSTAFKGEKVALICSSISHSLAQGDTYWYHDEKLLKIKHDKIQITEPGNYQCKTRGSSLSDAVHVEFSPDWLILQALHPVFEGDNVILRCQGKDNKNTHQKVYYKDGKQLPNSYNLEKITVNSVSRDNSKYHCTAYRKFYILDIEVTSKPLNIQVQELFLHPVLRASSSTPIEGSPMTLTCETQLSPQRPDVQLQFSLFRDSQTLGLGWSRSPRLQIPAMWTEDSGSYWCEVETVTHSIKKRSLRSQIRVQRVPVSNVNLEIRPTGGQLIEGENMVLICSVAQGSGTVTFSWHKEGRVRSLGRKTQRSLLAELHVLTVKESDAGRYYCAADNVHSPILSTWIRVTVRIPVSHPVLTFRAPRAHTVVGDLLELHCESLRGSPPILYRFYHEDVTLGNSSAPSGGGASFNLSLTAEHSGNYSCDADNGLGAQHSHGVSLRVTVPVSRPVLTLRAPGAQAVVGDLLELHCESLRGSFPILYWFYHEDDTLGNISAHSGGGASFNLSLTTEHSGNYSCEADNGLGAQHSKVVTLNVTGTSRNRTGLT
Method: as §1, §2

[3] = target: T3, IRTA1 extracellular domain-Fc fusion protein (human, UniProt Q96PJ5 20-387)
T3 construct: Whole entry named; also called IRTA1-Fc; IRTA1 (Fc-fusion); not shown: human IgG1 hinge and Fc
T3 sequence: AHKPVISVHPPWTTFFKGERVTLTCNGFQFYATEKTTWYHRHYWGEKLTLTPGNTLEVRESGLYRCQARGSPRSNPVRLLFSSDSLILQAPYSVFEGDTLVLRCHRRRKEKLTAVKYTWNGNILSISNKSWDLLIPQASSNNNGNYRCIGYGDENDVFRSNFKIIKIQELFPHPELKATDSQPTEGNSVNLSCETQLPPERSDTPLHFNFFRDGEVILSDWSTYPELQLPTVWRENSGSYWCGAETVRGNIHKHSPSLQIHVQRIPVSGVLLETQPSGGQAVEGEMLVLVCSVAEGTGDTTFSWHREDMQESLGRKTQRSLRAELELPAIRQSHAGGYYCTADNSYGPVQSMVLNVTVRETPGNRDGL
Method: as §1, §2

[4] = target: T4, IRTA5 extracellular domain-Fc fusion protein (human, UniProt Q96LA6 17-307)
T4 construct: Whole entry named; also called IRTA5-Fc; IRTA5 (Fc-fusion); not shown: human IgG1 hinge and Fc
T4 sequence: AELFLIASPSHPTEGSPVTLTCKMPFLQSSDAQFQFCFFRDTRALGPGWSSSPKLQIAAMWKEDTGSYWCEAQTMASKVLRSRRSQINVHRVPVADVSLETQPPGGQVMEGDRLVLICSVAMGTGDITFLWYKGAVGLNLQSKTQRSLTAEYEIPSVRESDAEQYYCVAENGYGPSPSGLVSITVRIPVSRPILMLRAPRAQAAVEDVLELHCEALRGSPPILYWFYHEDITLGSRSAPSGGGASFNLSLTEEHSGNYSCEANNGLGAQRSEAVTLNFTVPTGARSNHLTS
Method: as §1, §2

- binding result [1]: no binding
- binding result [2]: no binding
- binding result [3]: no binding
- binding result [4]: no binding
B1: F25 (antibody, IgG2a, V domains shown)
VH: EVQLQQSGPELVKPGTSVKMSCKASGYSFTGYFMNWMMQNHGKSLEWIGRINLYNGDTFYNQKFKDKATLTVDKSSNTVHMEFRSLASEDSAVYYCASSLYYFDYWGQGTTFTVSS
VL: DIVMTQSHKFMSTSVGDRVNITCKASQDVGTNVAWYQQKPGQSPKLLIYWASTRQTGVPDRFTGSGSGTDFTLTISNVQSEDLSDYFCQQYSSYPLTFGAGTKLELKR
notes: mouse hybridoma MAb, IgG2a, kappa; also called MAb F25; biotin-MAb F25
